Test results as given in paper PMC3338870 (Nature, 2012).

How the values were obtained:
[1] = target: CD25 ectodomain (UniProt P01589)
[2] = target: T1, γc ectodomain (human, UniProt P31785 23-262, C-terminally biotinylated (staining reagent for yeast)); test: crystal structure
T1 sequence: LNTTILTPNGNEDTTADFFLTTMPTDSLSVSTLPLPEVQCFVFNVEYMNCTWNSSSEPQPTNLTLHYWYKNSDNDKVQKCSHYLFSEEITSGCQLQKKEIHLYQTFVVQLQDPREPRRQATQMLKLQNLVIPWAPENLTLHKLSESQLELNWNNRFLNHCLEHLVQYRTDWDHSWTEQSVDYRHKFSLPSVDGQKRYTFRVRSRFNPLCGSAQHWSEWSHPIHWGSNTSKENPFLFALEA

Sequence of CD25 ectodomain (P01589 22-240): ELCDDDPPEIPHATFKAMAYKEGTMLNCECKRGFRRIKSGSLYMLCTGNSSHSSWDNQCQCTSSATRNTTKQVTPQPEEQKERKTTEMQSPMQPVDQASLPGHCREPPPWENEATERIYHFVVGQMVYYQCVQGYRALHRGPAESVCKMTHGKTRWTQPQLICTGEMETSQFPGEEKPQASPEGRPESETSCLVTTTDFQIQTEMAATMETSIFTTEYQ

In the case of “H9 super-2 (IL-2 superkine, second generation) (from UniProt P60568 21-153) (designed binder)”, the Kd [1] is reported as 6.6 nM.

“H9 F42A (from UniProt P60568 21-153) (designed binder)” was tested, and the Kd [1] was 1400 nM.

B1: IL-2Rβ ectodomain (receptor)
chain: AVNGTSQFTCFYNSRANISCVWSQDGALQDTSCQVHAWPDRRRWNQTCELLPVSQASWACNLILGAPDSQKLTTVDIVTLRVLCREGVRWRVMAIQDFKPFENLRLMAPISLQVVHVETHRCNISWEISQASHYFERHLEFEARTLSPGHTWEEAPLLTLKQKQEWICLETLTPDTQYEFQVRVKPLQGEFTTWSPWSQPLAFRTKPAALGKDT
modifications: C-terminally biotinylated (staining reagent for yeast)
B1: binds [2].
